Target: T1, SALL4 ZFC4 (human, UniProt Q9UJQ4 856-930)
T1 sequence: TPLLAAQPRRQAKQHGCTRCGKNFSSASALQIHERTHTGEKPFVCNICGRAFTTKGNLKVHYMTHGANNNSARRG
Test: ITC

B1: 12-mer T3C/A3'G (dsDNA)
DNA 1: GGCAATATTTCC
DNA 2: GGAAATATTGCC
Kd: ~9.95 µM

Reference: publication doi:10.1101/2022.06.13.496009
